Results: patent US20050249738A1

Target: CD22 on human B cells (human) (UniProt P20273)
Experiment: cell-based or functional assay

Sequence of UniProt P20273 (P20273 20-847): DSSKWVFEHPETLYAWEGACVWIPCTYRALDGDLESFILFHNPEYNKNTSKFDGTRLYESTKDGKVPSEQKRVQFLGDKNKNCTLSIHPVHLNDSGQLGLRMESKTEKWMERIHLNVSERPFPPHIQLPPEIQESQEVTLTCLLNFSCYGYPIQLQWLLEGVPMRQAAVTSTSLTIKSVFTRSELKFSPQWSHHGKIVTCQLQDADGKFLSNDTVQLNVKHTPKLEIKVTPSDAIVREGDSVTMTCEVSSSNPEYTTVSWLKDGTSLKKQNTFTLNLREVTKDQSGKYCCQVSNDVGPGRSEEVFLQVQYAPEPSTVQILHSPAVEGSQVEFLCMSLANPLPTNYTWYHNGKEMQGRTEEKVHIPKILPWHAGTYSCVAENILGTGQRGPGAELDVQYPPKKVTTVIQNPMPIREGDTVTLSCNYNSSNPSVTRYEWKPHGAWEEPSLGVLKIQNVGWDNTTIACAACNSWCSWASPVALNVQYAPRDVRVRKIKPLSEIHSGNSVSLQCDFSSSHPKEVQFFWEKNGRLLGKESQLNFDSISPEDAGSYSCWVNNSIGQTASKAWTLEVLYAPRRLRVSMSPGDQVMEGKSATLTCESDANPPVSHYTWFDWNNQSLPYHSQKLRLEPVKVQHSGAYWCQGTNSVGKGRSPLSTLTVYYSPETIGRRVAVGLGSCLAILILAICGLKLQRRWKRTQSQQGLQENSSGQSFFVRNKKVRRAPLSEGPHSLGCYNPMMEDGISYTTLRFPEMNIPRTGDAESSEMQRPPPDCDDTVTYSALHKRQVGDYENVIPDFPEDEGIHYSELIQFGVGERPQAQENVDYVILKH

Substance: LL2-ONCONASE® immunotoxin
- IC50 of protein synthesis inhibition, CA 46 cells, 24 h: 0.8 nM
- IC50 of protein synthesis inhibition, Daudi cells, 24 h: 0.1 nM
- IC50 of protein synthesis inhibition, Raji cells, 24 h: 0.8 nM
